The text below walks through data of patent US20240059766A1 (VOYAGER THERAPEUTICS, published 2024).

Substitutions are numbered along the chain they refer to. Non-standard residues stand in square brackets, D forms with d. No end group written: not given here. pT = C[C@@H](OP(=O)(O)O)[C@H](N)C(=O)O; pS = N[C@@H](COP(=O)(O)O)C(=O)O

Sequences and labels used below:
T1: Tau204-222 phospho-peptide (pT212) (human, also: SCBiot-(dPEG4) in the ELISA)
T1 peptide: GTPGSRSR[pT]PSLPTPPTRE

T2: Tau204-222 phospho-peptide (pS214) (human, also: SCBiot-(dPEG4) in the ELISA)
T2 peptide: GTPGSRSRTP[pS]LPTPPTRE

T3: Tau204-222 phospho-peptide (pT212/pS214) (human, also: SCBiot-(dPEG4) in the ELISA)
T3 peptide: GTPGSRSR[pT]P[pS]LPTPPTRE

T4: AC04 peptide (human, pT212, pT217: CSR(pT)PSLP(pT)PPTREPK)
T4 peptide: CSRXPSLPXPPTREPK

T5: wtTau C2 (human)
T5 peptide: PTREPKKVA

T6: AT8 peptide (amino acids 195-215 of tau) (human, phospho-peptide; the phosphorylated sites are not stated; immobilized on streptavidin biosensor tips)
T6 peptide: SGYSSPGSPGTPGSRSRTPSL

T7: Tau phospho-peptide (pS235) (human)
T7 construct: also called pS235 phospho-peptide
T7 peptide: KVAVVRTPPK[pS]PSSAKPS

B1: VY007 (antibody, V domains shown)
VH: EVQLVESGGGLVQPGGSLRLSCAASRFTFSNYNMNWVRQAPGKGLEWISYISSSSSTIYYADSVKGRFTISRDNAKNSLSLQMNSLRDEDTAVYYCASLGRGYWGQGTLVTVSS
VL: not shown
B2: VY001 (antibody, V domains shown)
VH: B1 VH with R26G, N31S, S56N, I70V, S80Y, S98T, T111I, V112A
VL: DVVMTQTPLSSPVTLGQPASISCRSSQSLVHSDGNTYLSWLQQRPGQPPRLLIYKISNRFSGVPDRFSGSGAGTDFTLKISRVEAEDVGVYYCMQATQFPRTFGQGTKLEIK
B3: VY006 (antibody, V domains shown)
VH: EVQLVESGGGLVQPGGSLRLSCAASGFTFSSYTMNWVRQAPGKGLEWVSYISSSSSTIYYADSVKGRFTISRDNAKNSLYLQMNSLRDEDTAVYYCASLGRGDCWGQGTLVTVSS
VL: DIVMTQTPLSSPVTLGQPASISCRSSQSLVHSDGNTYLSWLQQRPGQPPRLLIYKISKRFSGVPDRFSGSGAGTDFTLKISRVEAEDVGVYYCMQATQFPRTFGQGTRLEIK
B4: VY004 (antibody, V domains shown)
VH: EVQLVESGGGLVQAGGSLRLSCAASGFTFSDYSMNWVRQAPGKGLEWVSYIRSSSSIIYYADSVKGRFTISRDNAKNSLHLQMNSLRDEDTAVYYCARRGHFDYWGQGTLVTVSS
VL: EIVLTQSPATLSLSPGERATLSCRASQSVSDYLAWYQQKPGQAPRLFIYDVSKRATGIPARFSGSGSGTDFTLTISSLEPEDFAVYYCQQRSNWPLTFGGGTKVEIK
B5: VY005 (antibody, V domains shown)
VH: B3 VH with T33S, V48I, S55N, Y59K, S98R, L99R, G100S, R101L, C104Y, T112I
VL: DIQLTQSPSFLSASVGDRVTITCRASQGISCSLAWYQQKPGKAPKLLIYAASTLQSGVPSRFSGSGSGTEFTLTISSLQPEDFATYYCQQFNSYPFTFGPGTKVDIK
B6: VY013 (antibody, V domains shown)
VH: QVTLKESGPVLVKPTETLTLTCTVSGFSLINARMAVSWIRQPPGKALEWLAHIFSNDEKSYSTSLKSRLTISKDTSKSQVVLIMTNMDPVDTATYYCARIRGYSYNYGMDVWGQGTTVTVSS
VL: DIVMTQSPLSLPVIPGEPASISCRSSQSLLHSNGYIYLDWYLQKPGQSPQLLIYVGSNRASGVPDRFSGSGSGTDFKLKISRVEAEDVGVYYCMQTLQIPRTFGGGTKVEIK
B7: VY014 (antibody, V domains shown)
VH: EVQLVESGGGLVQPGGSLRLSCAASGFTFNNYDMHWVRQAAGKGLEWVSTIGAAGDTYYPGSVKGRFIISRENAKNSLYLQMNSLRAGDTAVYYCARAGETLEGATIGYYYGMDVWGQGTTVTVSS
VL: B6 VL with V3L, I14T, I36N, V55L, K77T, I80F, V90L, T96A, R101L
B8: VY009 (antibody, V domains shown)
VH: QITLKESGPTLVKPTQTLTLTCTLSGFSLSTSEVGVGWIRQPPGKALEWLAIIYWNDHKRYSPSLKNRLTFTKDTSKNQVVLTMTNMDPVDTATYYCARRVTGEGFDPWGQGTLVTVSS
VL: SYELTQPPSVSVSPGQTARITCSGDALPKQYAYWYQQKPGQAPVLVIFKDTERPSGIPERFSGSSSGTTVTLTISGVQAEDEADYYCQSADSSGSYVFGTGTKVTVL
B9: VY019 (antibody, V domains shown)
VH: QVQLQESGPGLVKPSETLSLTCTVSGGSISSYYWTWIRQPAGKGLEWIGRIDTSGSTNYNPSLKSRVTMSIDTSKKQFSLKLSSVTAADTAVYYCARGGDGYRYWGQGTLVTVSS
VL: B8 VL with Y33C, F48Y, T51S, S75T, A90T, Y96W, T100G, V104L
B10: VY016 (antibody, V domains shown)
VH: EVQLVESGGGLVQPGGSLRLSCAASGFTFSSYSMNWVRQAPGKGLEWVSYISRSGSTIYYADSVEGRFTISRDNAYNSLYLQMISLRDDDTAVYYCARGNWAYWGQGILVTVSS
VL: QSVLTQPPSVSGAPGQRVTISCTGSSSNIGAGYDVHWYQQLPGTAPKLLIYGNSNRPSGVPDRFSGSKSGTSASLAITGLQAEDETDFYCQSYDSSLSGSVFGGGTKLTVL
B11: VY012 (antibody, V domains shown)
VH: EVQLLESGGGLVQPGGSLRLSCAASGFTYSSYAMSWVRRAPGKGLEWISIISGSSSITYYADSMKGRFTISRDNSKNTLFLQMNSLRAEDTAVYYCAKGGRYGYFQHWGQGTLVTVSS
VL: SYVLTQPPSVSVAPGQTARITCGGNNIGSKSVHWYQQKPGQAPVLVVYDDSDRPSGIPERFSGSNSGNTATLTISRVEAGDEADYYCQVWDSSSDPVVFGGGTMLTVL
B12: VY017 (antibody, V domains shown)
VH: B4 VH with A14P, D31S, I57T, N77K, H80Y, G100S, H101I, F102A
VL: EIVLTQSPATLSSSPGERATLSCRASQSVTSYLNWYQQKPGQAPRLLIYDASNRATGIPARFSGSGSGTDFTLTISSLEPEDFALYYCQQRSNWPYTFGQGTKLEIK
B13: VY018 (antibody, V domains shown)
VH: QVQLQESGPGLVKPSETLSLTCTVSGGSISNYYWSWIRQPAGKGLEWIGRIYTSGDTYYNPSLQSRVTMSVDTSKNQFSLKLSAVTAADTAVYYCARAGIVGTPGLGMDVWGQGTTVTVSS
VL: SYELTQPPSVSVSPGQTARITCSGEALPKQYAYWYQQKPGQAPVLVIYKDSERPSGIPERFSGSSSGTTVTLTISGVQAEDEADYYCQSADSSGTYRVFGGGTKLTVL

Chain of wild type tau (P10636 other isoform, or with tags, fused parts or gaps limits assumed): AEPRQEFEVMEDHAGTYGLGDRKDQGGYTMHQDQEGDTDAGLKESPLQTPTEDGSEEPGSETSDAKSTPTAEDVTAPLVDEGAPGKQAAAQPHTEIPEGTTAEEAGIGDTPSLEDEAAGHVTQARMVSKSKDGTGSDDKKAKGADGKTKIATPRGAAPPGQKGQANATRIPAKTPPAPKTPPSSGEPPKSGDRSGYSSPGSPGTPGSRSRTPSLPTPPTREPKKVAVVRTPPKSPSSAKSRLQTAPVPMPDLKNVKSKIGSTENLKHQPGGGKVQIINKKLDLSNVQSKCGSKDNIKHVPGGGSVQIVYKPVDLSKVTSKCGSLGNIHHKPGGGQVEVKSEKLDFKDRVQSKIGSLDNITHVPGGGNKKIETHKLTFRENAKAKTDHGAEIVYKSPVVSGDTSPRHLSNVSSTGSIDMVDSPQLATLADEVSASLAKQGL

One test deals with T8, Tau191-214 phospho-peptide (pS199) (human, pS199 (phosphoserine); SCBio-4PEG in the ELISA).
T8 construct: also called pS199 peptide
As to the kind of experiment: BLI.
With B1, the binding result is “no binding”.
On the same count and under the same terms, as for B2, the entry is “no binding”; as for B3, “no binding”.

The next test deals with T9, SCBio-4PEG-Peptide (Tau191-214) pS199-old (human, pS199; SCBio-4PEG at the peptide as in the table head).
T9 construct: the suffix old is not explained
T9 sequence (peptide, as listed by the source): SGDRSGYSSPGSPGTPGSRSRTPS
Put plainly: one point ELISA. The text has this:
(§1) One-point ELISA was used to determine differential binding based on the individual phosphorylation patterns of each peptide. OD values (450 nm) were collected (as shown in Table 13), where a stronger positive signal is shown as a higher OD value, which is indicative of increased binding.
On the technique in general: In an ELISA, binding on a coated surface is turned into a signal by an enzyme label.
Take B1: the OD450 was found to be 0.057 OD450 nm.
The same measure, in the same setting: as for B2, the figure is 0.059 OD450 nm.
Same read-out and setting: as for B3, the figure is 0.063 OD450 nm.

For the next test, the target named is T8, Tau191-214 phospho-peptide (pS199). As to the kind of experiment: one point ELISA.
Excerpt: as §1
For B1, the OD450 came out at 0.057 OD450 nm.
The same measure, in the same setting: as for B2, the figure is 0.059 OD450 nm; as for B3, 0.054 OD450 nm.

The next test has as its target T1, Tau204-222 phospho-peptide (pT212). Put plainly: one point ELISA.
Excerpt: as §1
On to B4, for which the OD450 was determined as 0.082 OD450 nm.
Same read-out and setting: as for B5, the figure is 0.087 OD450 nm.

For another test, the target named is T2, Tau204-222 phospho-peptide (pS214). Put plainly: one point ELISA.
Excerpt: as §1
The molecule B4 yielded an OD450 of 0.069 OD450 nm.
On the same count and under the same terms, as for B5, the figure is 0.092 OD450 nm.

A further test addresses T3, Tau204-222 phospho-peptide (pT212/pS214). As to the kind of experiment: one point ELISA.
Excerpt: as §1
For B4, the OD450 came to 0.067 OD450 nm.
Consider B5, for which the OD450 was found to be 0.111 OD450 nm.

The target in the next test is T4, AC04 peptide. As to the kind of experiment: one point ELISA.
Excerpt: as §1
B4: the OD450 was found to be 2.85 OD450 nm.
Same read-out and setting: as for B5, the figure is 2.83 OD450 nm.

Another test deals with T5, wtTau C2. Put plainly: one point ELISA.
Excerpt: as §1
Molecule B4 registered an OD450 of 0.169 OD450 nm.
Still for that read-out and setting: as for B5, the figure is 0.153 OD450 nm.

The target of the next test is T10, Enriched paired helical filament (ePHF; sarkosyl insoluble tau) (human, UniProt P10636 2-758, pathological (hyperphosphorylated) tau isolated from brain; sites not stated).
T10 construct: aggregate isolated from AD frontal cortical tissue
T10 sequence (P10636 other isoform, or with tags, fused parts or gaps limits assumed): as the sequence (P10636 other isoform, or with tags, fused parts or gaps limits assumed) above
Put plainly: direct ELISA, coated antigen. On the procedure:
(§2) A set of recombinant human IgG1 antibodies were prepared with clone-specific variable domain pairs selected from those presented in Table 1 and human IgG1 constant domains. These candidate antibodies were analyzed for binding to ePHF and specificity for ePHF over wild type tau by direct ELISA.
(§3) For direct ePHF and wildtype tau ELISA, plates were first coated with ePHF or wild type tau. Antigen solutions were prepared in PBS and 50 μL were pipetted into each well. Plates were covered and incubated for one hour at 37° C. or overnight at 4° C. Plates were then washed and blocked by addition of 150 μl of blocking buffer to each well and incubated one hour at room temperature. Plates were then washed before addition of serially diluted candidate antibody samples prepared in blocking buffer. Detection of candidate antibody binding was carried out by washing plates and adding a solution of enzyme-labeled secondary antibody in blocking buffer to each well. Secondary antibody binding was detected by addition of substrate and spectrophotometric analysis of resulting reaction product.
Broadly, the EC50 is the midpoint of the concentration-response curve. As to B6, the EC50 was determined as 0.06 nM.
On to B7, for which it took 6.23 nM to reach a half-maximal effect (EC50).
Same read-out and setting: as for B8, the figure is 1.74 nM.
In the case of B9, the binding result is on record as “no binding”.
For B4, the EC50 is 0.07 nM.
The same measure, in the same setting: as for B1, the figure is 0.18 nM.
B2 gave an EC50 of 0.02 nM.
Turning to B10, the binding result is “no binding”.
B5 came in with an EC50 of 0.07 nM.
Still for that read-out and setting: as for B3, the figure is 0.11 nM; as for B11, 0.04 nM.

The next test has as its target wild type tau (human, UniProt P10636 2-758). Put plainly: direct ELISA, coated antigen. On the procedure:
as §2, §3
In the case of B6, the EC50 was determined as 0.98 nM.
In turn, B7 had a 50% effective concentration (EC50) of 0.04 nM.
As for B9, the binding result is reported as “no binding”.
With B10, the binding result is recorded as “no binding”.
B11 came in with an EC50 of 0.01 nM.

A further test deals with iPHF (UniProt P10636-8 2-441). As to the kind of experiment: BLI (Octet), antibody on biosensor tip. On the procedure: Anti-human tau antibodies were assessed for affinity for iPHF by Octet (ForteBio, Menlo Park, CA) analysis. A set of recombinant human IgG1 antibodies were prepared with clone-specific variable domain pairs selected from those presented in Table 1 and human IgG1 constant domains. Candidate antibodies were immobilized on biosensor tips (ForteBio) in kinetic buffer (ForteBio). Biosensor tips were then washed before introduction of a solution of iPHF in kinetic buffer for analysis of association and dissociation with candidate antibodies.
Chain of iPHF (P10636 other isoform, or with tags, fused parts or gaps): as the sequence (P10636 other isoform, or with tags, fused parts or gaps limits assumed) above
On the technique in general: In BLI a coated tip is dipped into the sample, and binding shifts an interference pattern.
One may read the Kd as the equilibrium constant for the complex coming apart. Low values mean higher affinity, high ones lower affinity. Molecule B6 displayed a Kd of 2.9 nM.
The same measure, in the same setting: as for B7, the figure is 5.3 nM; as for B8, 1.1 nM.
Still for that read-out and setting: as for B4, the figure is 3.7 nM; as for B12, 3.7 nM.
Consider B1, for which binding was put at a Kd of 0.6 nM.
For the molecule B2, binding was characterised by a dissociation constant (Kd) of 7.7 nM.
In turn, B13 had a Kd of 3 nM.
On the same count and under the same terms, as for B5, the figure is 1 nM; as for B3, 1.5 nM; as for B11, 5.1 nM.

The next test addresses T6, AT8 peptide (amino acids 195-215 of tau). As to the kind of experiment: BLI (Octet), peptide on streptavidin tip. On the procedure: Briefly, phospho-peptides were immobilized on streptavidin biosensor tips and the binding ability of each antibody was assessed using an eight-point concentration gradient.
B1 returned a Kd of 0.0182 nM.
Still for that read-out and setting: as for B2, the figure is 0.00435 nM; as for B3, 0.00382 nM.

A further test concerns the target T7, Tau phospho-peptide (pS235). Put plainly: one point ELISA on the pS235 peptide.
Consider B8, for which the binding result is “no binding (tested: not printed (one point))”.
Consider B9, for which the binding result is reported as “no binding (tested: not printed (one point))”.
The same measure, in the same setting: as for B13, the entry is “no binding (tested: not printed (one point))”.
